The target in assay [1] is Human P-selectin (CD62P) on human platelets in whole blood (human) (UniProt P16109). Nature of the assay: flow cytometry, human whole blood, platelets activated with 2.5 uM ADP. On the technique in general: Flow cytometry measures light scatter and fluorescence of single cells or particles in a stream.
For assay [2] the target is unchanged. Nature of the assay: flow cytometry, human whole blood, platelets activated with 200 uM TRAP.
Assay [3] shares this target. The experiment in a line: flow cytometry, human whole blood, non-activated platelets.

Chain of UniProt P16109 (P16109 42-830): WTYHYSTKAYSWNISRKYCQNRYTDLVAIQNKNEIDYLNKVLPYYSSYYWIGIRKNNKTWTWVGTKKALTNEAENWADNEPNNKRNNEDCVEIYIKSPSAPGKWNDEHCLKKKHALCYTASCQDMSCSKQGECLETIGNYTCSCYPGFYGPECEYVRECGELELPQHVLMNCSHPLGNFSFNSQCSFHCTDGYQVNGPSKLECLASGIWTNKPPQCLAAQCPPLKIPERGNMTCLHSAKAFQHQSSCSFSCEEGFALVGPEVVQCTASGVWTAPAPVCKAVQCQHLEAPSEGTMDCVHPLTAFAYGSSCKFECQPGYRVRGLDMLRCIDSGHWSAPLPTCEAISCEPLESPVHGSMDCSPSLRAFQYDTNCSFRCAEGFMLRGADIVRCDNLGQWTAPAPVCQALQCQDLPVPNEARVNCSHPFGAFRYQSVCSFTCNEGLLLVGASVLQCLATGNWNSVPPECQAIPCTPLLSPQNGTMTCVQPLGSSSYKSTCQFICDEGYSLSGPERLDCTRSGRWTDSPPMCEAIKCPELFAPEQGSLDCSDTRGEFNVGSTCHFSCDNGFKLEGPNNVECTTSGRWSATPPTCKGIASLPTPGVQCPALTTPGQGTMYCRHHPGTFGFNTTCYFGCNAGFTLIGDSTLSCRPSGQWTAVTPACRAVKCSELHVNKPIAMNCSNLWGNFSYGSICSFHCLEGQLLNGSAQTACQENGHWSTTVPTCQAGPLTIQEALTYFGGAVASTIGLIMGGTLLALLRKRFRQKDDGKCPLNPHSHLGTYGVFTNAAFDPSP

As for “PC5-labeled antihuman P-selectin (CD62P, AK-4 clone) (antibody)”, the figures for the positivity (% of platelets) in assay [1], in assay [2] and in assay [3] were 73.4%, 97.8% and 0.4%, respectively.
